What was measured:
[1] = molecular target: Ag 2.15 (FC-2.15 antigen of breast tumor cells; membrane bands of 160 kDa, 130 kDa and 115 kDa) (human)
[2] = molecular target: Ag 2.15 (FC-2.15 antigen of breast tumor cells; membrane bands of 160 kDa, 130 kDa and 115 kDa) (human); test: cell ELISA on MCF-7 cells after periodate oxidation, against untreated cells

Residual clonogenic ability (%) after MAb and rabbit complement [1]: 11.7%
% inhibition of reactivity by 10 mM periodate [2]: 47.1%
B1: monoclonal antibody FC-2.15 (antibody, V domains shown)
VH: VKLQESGGGLVQPGGSLKLSCAASGFDFSRYWMSYVRQAPGKGLEWIGEIDPDSSTINYTPSLKDKFIISRDNAKNTLYLQMSKVRSEDTALYYCARETGTPFDYWGQGTTLTVSS
VL: DIVMTQSPASLSVATGEKVTIRCITSTDIDDDMNWYEQKPGEPPKLLISEGNTLRPGVPSPFSSSGYGTDFVFTIENTHSEDVADYYCLQSDNMPFTFGSGTKLEIKP
